From patent US20230057012A1 (SCHOLAR ROCK, published 2023)

Tests used:
[1] = biological target: T1, human GARP-proTGFβ1 complex (human, UniProt Q14392 18-627; P01137 30-390, limits assumed); test: ELISA, purified hIgG4 titrated from about 0.002 to 100 nM, readout RLU, panel hGARP-TGFb1
T1 construct: Purified recombinant, biotinylated antigen complex; also called hGARP-proTGFβ1; LLC

[2] = biological target: endogenous LTBP-proTGFβ1 of LN229 cells (human); test: cell-based or functional assay
[3] = biological target: T2, human LTBP3-proTGFβ1 complex (human, UniProt Q9NS15 44-1303; P01137 30-390, limits assumed); test: ELISA, purified hIgG4 titrated from about 0.002 to 100 nM, readout RLU, panel hLTBP3-TGFb1
T2 construct: Purified recombinant, biotinylated antigen complex; also called hLTBP3-proTGFβ1; LLC

[4] = biological target: T3, murine LTBP3-proTGFβ1 complex (mouse; human, UniProt Q61810 41-1245; P01137 30-390, limits assumed); test: ELISA, purified hIgG4 titrated from about 0.002 to 100 nM, readout RLU, panel mLTBP3-TGFb1
T3 construct: also called mLTBP3-proTGFβ1; LLC

[5] = biological target: T4, human LTBP1-proTGFβ1 complex (human, UniProt Q14766 347-1721; P01137 30-390, limits assumed); test: ELISA, purified hIgG4 titrated from about 0.002 to 100 nM, readout RLU, panel hLTBP1-TGFb1
T4 construct: also called hLTBP1-proTGFβ1; large latent complex (LLC)
T4 sequence (Q14766 347-1721 limits assumed, chain 1 of 2): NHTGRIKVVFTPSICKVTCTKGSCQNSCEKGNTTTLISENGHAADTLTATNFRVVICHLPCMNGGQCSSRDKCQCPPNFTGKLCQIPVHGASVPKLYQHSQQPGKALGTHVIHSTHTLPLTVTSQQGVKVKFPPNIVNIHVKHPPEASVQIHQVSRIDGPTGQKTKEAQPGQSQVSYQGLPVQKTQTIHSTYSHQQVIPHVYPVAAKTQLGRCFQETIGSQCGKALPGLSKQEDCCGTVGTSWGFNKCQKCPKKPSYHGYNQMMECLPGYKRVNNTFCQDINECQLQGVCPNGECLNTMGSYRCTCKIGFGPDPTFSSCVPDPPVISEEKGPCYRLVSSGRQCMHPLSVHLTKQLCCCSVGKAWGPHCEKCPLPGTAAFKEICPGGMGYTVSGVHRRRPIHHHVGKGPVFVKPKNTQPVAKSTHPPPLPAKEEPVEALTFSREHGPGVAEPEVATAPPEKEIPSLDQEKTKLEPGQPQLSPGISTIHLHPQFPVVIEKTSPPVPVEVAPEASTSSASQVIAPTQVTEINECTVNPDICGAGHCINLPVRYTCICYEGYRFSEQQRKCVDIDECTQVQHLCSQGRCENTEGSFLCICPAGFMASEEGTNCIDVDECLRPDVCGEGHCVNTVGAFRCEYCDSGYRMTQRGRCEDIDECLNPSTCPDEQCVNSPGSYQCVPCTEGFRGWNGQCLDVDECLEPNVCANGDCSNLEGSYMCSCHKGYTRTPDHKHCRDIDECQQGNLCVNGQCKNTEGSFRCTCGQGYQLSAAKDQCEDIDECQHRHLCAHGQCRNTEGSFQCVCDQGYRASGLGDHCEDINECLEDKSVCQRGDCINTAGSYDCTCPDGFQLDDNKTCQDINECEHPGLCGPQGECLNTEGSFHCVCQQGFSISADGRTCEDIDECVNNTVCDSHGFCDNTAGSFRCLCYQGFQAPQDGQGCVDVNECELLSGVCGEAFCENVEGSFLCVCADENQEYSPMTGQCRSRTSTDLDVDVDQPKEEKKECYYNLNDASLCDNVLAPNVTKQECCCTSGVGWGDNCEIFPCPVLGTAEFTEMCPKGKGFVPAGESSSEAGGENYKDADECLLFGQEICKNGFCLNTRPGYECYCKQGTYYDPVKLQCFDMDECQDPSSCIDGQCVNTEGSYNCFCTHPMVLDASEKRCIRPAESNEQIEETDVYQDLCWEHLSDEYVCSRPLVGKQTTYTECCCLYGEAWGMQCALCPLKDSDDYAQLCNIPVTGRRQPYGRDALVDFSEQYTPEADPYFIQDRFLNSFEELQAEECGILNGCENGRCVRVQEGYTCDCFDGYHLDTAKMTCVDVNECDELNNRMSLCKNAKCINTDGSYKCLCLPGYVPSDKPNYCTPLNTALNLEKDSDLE
T4 sequence (P01137 30-390 limits assumed, chain 2 of 2): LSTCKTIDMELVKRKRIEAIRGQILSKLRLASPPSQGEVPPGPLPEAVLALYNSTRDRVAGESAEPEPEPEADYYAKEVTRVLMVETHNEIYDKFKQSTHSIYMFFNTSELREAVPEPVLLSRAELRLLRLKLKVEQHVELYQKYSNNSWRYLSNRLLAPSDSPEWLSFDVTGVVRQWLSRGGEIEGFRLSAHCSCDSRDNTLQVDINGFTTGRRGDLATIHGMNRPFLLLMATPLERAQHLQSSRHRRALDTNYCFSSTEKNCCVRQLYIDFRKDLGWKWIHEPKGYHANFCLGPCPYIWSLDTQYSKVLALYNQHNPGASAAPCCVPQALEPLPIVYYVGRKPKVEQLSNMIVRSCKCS

[6] = biological target: T5, murine GARP-proTGFβ1 complex (mouse; human, UniProt G3XA59 18-628; P01137 30-390, limits assumed); test: ELISA, purified hIgG4 titrated from about 0.002 to 100 nM, readout RLU, panel mGARP-TGFb1
T5 construct: As for m5; also called mGARP-proTGFβ1; LLC
T5 sequence (G3XA59 18-628 limits assumed, chain 1 of 2): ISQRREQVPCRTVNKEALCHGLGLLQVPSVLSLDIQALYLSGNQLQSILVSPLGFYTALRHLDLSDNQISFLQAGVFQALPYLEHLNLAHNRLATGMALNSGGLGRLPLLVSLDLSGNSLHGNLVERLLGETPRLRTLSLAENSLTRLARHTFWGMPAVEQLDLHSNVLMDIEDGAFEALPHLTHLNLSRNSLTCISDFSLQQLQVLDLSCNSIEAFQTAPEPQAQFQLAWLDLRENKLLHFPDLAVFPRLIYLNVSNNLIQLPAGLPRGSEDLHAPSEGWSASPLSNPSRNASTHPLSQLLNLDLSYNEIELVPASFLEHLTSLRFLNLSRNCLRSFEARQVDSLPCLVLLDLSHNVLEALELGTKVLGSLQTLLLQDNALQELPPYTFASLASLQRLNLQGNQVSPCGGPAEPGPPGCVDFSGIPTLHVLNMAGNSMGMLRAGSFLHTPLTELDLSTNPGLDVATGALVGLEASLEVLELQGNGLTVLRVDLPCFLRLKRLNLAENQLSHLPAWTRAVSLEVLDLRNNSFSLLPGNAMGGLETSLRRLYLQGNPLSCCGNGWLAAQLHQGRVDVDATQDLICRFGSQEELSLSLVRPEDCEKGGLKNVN
T5 sequence (P01137 30-390 limits assumed, chain 2 of 2): as the sequence (P01137 30-390 limits assumed, chain 2 of 2) above

[7] = biological target: T6, murine LTBP1-proTGFβ1 complex (mouse; human, UniProt Q8CG19 339-1712; P01137 30-390, limits assumed); test: ELISA, purified hIgG4 titrated from about 0.002 to 100 nM, readout RLU, panel mLTBP1-TGFb1
T6 construct: also called mLTBP1-proTGFβ1; LLC

[8] = biological target: T4, human LTBP1-proTGFβ1 complex; test: SPR (Biacore), binding to Human LTBP1-ProTGFβ1, Fab at 0.625-10 nM
Procedure: (§1) A BIACORE® system was employed to determine the monovalent binding affinity and the kinetic parameters for antigen binding of test antibodies. The binding kinetics were evaluated by surface plasmon resonance using Biacore 8K (GE Healthcare). A Biotin CAP sensor chip was used to capture the biotinylated antigens. […] Multi-cycle kinetics was employed where each analyte concentration was injected in a separate cycle and the sensor chip surface was regenerated after each cycle. All the assays were carried out in freshly prepared 1× HBS-EP+ buffer (10 mM HEPES, 150 mM NaCl, 3 mM EDTA, 0.05% Tween20, pH 7.4). Data for all the analyte concentrations for each interaction were fit globally to a 1:1 binding model to obtain the kinetic parameters. The Sensorgram for 0 nM analyte concentration was used as reference.
Binding kinetics was evaluated by surface plasmon resonance using a BIACORE® 8K (GE) instrument. Biotinylated antigens were captured on a Biotin CAP chip and the Fab fragments of the antibodies were used as analytes. Sensorgrams for Fab binding at variable concentrations (0.6-10 nM) were globally fit to obtain the kinetic parameters.

[9] = biological target: T7, murine LRRC33-proTGFβ1 complex (mouse; human, UniProt Q8BMT4 20-651, limits assumed); test: SPR Biacore; Fab
T7 construct: As for m5; also called mLRRC33-proTGFβ1; LLC
T7 sequence (Q8BMT4 20-651 limits assumed, chain 1 of 2): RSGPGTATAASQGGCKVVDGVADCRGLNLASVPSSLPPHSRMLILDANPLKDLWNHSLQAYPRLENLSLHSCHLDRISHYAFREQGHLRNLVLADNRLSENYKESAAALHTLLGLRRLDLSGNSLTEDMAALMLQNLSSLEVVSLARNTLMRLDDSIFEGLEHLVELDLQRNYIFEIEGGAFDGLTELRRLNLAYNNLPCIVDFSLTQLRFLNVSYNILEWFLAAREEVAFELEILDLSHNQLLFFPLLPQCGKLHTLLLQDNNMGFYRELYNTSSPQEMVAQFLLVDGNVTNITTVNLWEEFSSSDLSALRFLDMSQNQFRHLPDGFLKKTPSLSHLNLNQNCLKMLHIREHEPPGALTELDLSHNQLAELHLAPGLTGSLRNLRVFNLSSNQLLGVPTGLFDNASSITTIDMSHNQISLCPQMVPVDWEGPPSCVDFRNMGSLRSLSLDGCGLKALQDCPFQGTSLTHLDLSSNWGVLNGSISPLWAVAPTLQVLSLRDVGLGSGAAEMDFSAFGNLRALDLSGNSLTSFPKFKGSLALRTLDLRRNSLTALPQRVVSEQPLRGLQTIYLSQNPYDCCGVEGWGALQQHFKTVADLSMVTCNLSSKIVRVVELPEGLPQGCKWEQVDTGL
T7 sequence (chain, as listed by the source limits assumed, chain 2 of 2): as the sequence (P01137 30-390 limits assumed, chain 2 of 2) above
Procedure: (§2) Surface plasmon resonance (SPR) was used to measure binding kinetics using a BIACORE® system. […] Experiments were carried out with eight types of LLCs, namely, hLTBP1-proTGFβ1, mLTBP1-proTGFβ1, hLTBP3-proTGFβ1, mLTBP3-proTGFβ1, hGARP-proTGFβ1, mGARP-proTGFβ1, hLRRC33-proTGFβ1 and mLRRC33-proTGFβ1.
as §1

[10] = biological target: T4, human LTBP1-proTGFβ1 complex; test: SPR Biacore; Fab
Procedure: as §2, §1

[11] = biological target: T3, murine LTBP3-proTGFβ1 complex; test: SPR Biacore; Fab
Procedure: as §2, §1

[12] = biological target: T5, murine GARP-proTGFβ1 complex; test: SPR Biacore; Fab
Procedure: as §2, §1

[13] = biological target: T8, human LRRC33-proTGFβ1 complex (human, UniProt Q86YC3 19-650; P01137 30-390, limits assumed); test: SPR Biacore; Fab
T8 construct: Purified recombinant, biotinylated antigen complex; also called hLRRC33-proTGFβ1; LLC
T8 sequence (Q86YC3 19-650 limits assumed, chain 1 of 2): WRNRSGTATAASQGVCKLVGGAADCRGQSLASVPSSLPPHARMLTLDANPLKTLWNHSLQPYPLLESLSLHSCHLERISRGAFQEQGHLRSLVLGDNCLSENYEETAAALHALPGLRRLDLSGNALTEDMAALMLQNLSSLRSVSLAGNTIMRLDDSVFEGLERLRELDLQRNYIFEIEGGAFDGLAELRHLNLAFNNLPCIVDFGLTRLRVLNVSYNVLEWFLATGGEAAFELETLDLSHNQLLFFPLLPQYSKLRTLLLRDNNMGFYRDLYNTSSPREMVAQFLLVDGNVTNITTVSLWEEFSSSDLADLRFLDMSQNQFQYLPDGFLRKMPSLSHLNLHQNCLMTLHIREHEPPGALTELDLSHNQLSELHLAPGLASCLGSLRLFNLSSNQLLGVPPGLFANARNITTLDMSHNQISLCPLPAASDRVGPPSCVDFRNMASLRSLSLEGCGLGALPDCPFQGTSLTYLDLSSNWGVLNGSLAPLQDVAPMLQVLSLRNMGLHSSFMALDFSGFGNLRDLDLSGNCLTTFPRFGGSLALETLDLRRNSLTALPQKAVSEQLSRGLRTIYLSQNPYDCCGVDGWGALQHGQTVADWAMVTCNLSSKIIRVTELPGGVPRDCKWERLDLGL
T8 sequence (P01137 30-390 limits assumed, chain 2 of 2): as the sequence (P01137 30-390 limits assumed, chain 2 of 2) above
Procedure: as §2, §1

[14] = biological target: T2, human LTBP3-proTGFβ1 complex; test: SPR Biacore; Fab
Procedure: as §2, §1

[15] = biological target: T6, murine LTBP1-proTGFβ1 complex; test: SPR Biacore; Fab
Procedure: as §2, §1

[16] = biological target: T1, human GARP-proTGFβ1 complex; test: SPR Biacore; Fab
Procedure: as §2, §1

Sequence of endogenous LTBP-proTGFβ1 of LN229 cells (human) (P01137 30-390): as the sequence (P01137 30-390 limits assumed, chain 2 of 2) above
T1 sequence (Q14392 18-627 limits assumed, chain 1 of 2): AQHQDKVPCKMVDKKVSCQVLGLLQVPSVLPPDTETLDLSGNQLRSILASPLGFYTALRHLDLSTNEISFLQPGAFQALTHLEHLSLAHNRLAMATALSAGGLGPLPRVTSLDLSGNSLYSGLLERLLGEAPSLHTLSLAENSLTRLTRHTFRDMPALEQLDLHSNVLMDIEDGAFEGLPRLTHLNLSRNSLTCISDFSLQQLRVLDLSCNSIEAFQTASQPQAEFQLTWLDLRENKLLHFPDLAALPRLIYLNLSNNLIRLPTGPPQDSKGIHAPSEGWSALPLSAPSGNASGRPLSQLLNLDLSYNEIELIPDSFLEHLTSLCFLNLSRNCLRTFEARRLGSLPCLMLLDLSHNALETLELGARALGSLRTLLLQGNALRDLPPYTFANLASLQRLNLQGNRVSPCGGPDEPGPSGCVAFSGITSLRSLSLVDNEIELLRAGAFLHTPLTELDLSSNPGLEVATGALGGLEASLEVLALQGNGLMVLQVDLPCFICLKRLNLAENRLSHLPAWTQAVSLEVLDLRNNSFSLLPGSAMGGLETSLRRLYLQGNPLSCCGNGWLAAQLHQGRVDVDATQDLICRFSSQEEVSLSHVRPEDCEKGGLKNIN
T1 sequence (P01137 30-390 limits assumed, chain 2 of 2): as the sequence (P01137 30-390 limits assumed, chain 2 of 2) above

B1: Ab46 hIgG4 (antibody, V domains shown)
VH: EVQLLESGGGLVQPGGSLRLSCAASGFTFADYAMTWVRQAPGKGLEWVSAISGSGAATYFADSVKGRFTISRDNSKNTLYLQMNSLRAEDTAVYYCARVSSGHWDYDYWGQGTLVTVSS
VL: DIQLTQSPSSLSASVGDRVTITCRASQSISSYLNWYQQKPGKAPKLLIYAASGLESGVPSRFSGSGSGTDFTLTISSLQPEDFATYYCQQTYGVPLTFGGGTKVEIK
notes: hIgG4 immunoglobulin; also called Ab46 (mAb)
[1]
  EC50 (read off the curve): ~0.3 nM
[2]
  mAb IC50 (nM); cell-based potency assay: 0.95 nM
[3]
  EC50 (read off the curve): ~0.2 nM
[4]
  EC50 (read off the curve): ~0.2 nM
[5]
  EC50 (read off the curve): ~0.3 nM
[6]
  EC50 (read off the curve): ~0.2 nM
[7]
  EC50 (read off the curve): ~0.2 nM

B2: Ab46 Fab (Fab, V domains shown)
VH: EVQLLESGGGLVQPGGSLRLSCAASGFTFADYAMTWVRQAPGKGLEWVSAISGSGAATYFADSVKGRFTISRDNSKNTLYLQMNSLRAEDTAVYYCARVSSGHWDYDYWGQGTLVTVSS
VL: DIQLTQSPSSLSASVGDRVTITCRASQSISSYLNWYQQKPGKAPKLLIYAASGLESGVPSRFSGSGSGTDFTLTISSLQPEDFATYYCQQTYGVPLTFGGGTKVEIK
notes: Fab fragment
[2]
  fAb IC50 (nM); cell-based potency assay: 0.723 nM
[8]
  t1/2: 2.18 h
[9]
  Fold difference (affinity relative to Ref): 95 fold
[10]
  Fold difference (affinity relative to Ref): 134 fold
[11]
  Fold difference (affinity relative to Ref): 91 fold
[12]
  Fold difference (affinity relative to Ref): 69 fold
[13]
  Fold difference (affinity relative to Ref): 118 fold
[14]
  Fold difference (affinity relative to Ref): 72 fold
[15]
  Fold difference (affinity relative to Ref): 123 fold
[16]
  Fold difference (affinity relative to Ref): 53 fold

B3: Ab42 Fab (Fab, V domains shown)
VH: QVQLVESGGGVVQPGRSLRLSCAASGFTFRSYVMHWVRQAPGKGLEWVAVISHEGSLKYYADSVKGRFTISRDNSKNTLYLQMNSLRAEDTAVYYCARPRIAARRGGFGYWGQGTLVTVSS
VL: NFMLTQPHSVSESPGKTVTISCTRSSGNIDNNYVQWYQQRPGSSPTTVIYEDNQRPSGVPDRFSGSIDSSSNSASLTISGLKTEDEADYYCQSYDYDTQGVVFGGGTKLTVL
[9]
  Fold difference (affinity relative to Ref): 74 fold
  Kd: 0.114 nM
  koff: 0.000123 s⁻¹
  kon: 1.08e+06 M⁻¹ s⁻¹
[13]
  Fold difference (affinity relative to Ref): 81 fold
  Kd: 0.123 nM
  koff: 0.000123 s⁻¹
  kon: 1e+06 M⁻¹ s⁻¹
